Measurements published in patent US10287317B2, “Proprotein convertase subtilisin kexin type 9 (PCSK9) allosteric binding ligands to modulate serum low density lipoprotein (LDL) levels” (SRX Cardio, LLC, priority 2013, dated 2019).
Where no end group is shown, it is not given here.

What was measured:
[1] = biological target: PCSK9-D374Y protein (Homo sapiens, UniProt Q8NBP7, D374Y); experiment: Cellular diI-LDL uptake in HuH7 cells with PCSK9-D374Y; type: cell-based
Description: HuH7 cells were incubated in a 96-well plate for a total of 20 h in the absence (Cnt) or presence of 0.5 μg/ml PCSK9-D374Y protein alone (DY) or mixed with 100 uM of various SRX peptides. After 16 h, dil-LDL (5 ug/ml) was added to the incubation mixtures. After 4 h, fluorescence was measured (Ex: 520 nm/Em: 575 nm; cutoff: 550 nm). Dil-LDL uptake is calculated as RFU corrected for the number of cells.
HuH7 cells were incubated in a 96-well plate for a total of 20 h in the absence (Cnt) or presence of 0.5 μg/ml PCSK9 GOF-D374Y protein alone (DY) or mixed with increasing concentrations of various SRX peptides. After 16 h, dil-LDL (5 ug/ml) was added to the incubation mixtures. After 4 h, fluorescence was measured (Ex: 520 nm/Em: 575 nm; cutoff: 550 nm). Dil-LDL uptake is calculated as RFU corrected for the number of cells.
LDL internalization was measured by uptake of a fluorescently tagged LDL molecule (diI-LDL) in the absence of exogenous PCSK9 (Cnt), in the presence of exogenous PCSK9 (normal PCSK9=WT, D374Y mutant PCSK9=DY), or in the presence of PCSK9 and a tested peptide (indicated as SRX##, or SRX if a single peptide results is shown in a graph).
Cells, such as HepG2, HuH7, FL83B or a cell line transfected with a short-hairpin PCSK9 knockdown sequence such as HepG2/shPCSK9, HuH7/shPCSK9, FL83B/shPCSK9, were seeded at 2×10^4 cells/well in a 96-well plate and cultured at 37 degC in RPMI+10% FBS. After approximately 24 hours, the cell media was aspirated off and replaced with RPMI+3-5 mg/mL LPDS (Lipoprotein Deficient Serum, Millipore) media for further experimentation. Benjannet et al., “Effects of the prosegment and pH on the activity of PCSK9: evidence for additional processing events” J Biol Chem. 285(52): 40965-40978 (2010).
Peptide activity was assessed by culturing cells with: i) no SRX peptide/PCSK9 protein complex (control, Cnt); ii) PCSK9 protein; and iii) SRX peptide/PCSK9 complex. Various permutations of these experimental conditions were also used, including: i) the addition of wild type PCSK9 (WT); ii) a mutant PCSK9 (e.g., D374Y mutant PCSK9, DY); iii) various SRX peptides and/or PCSK9 at the same concentration and/or combinations; iv) various SRX peptides and/or PCSK9 at different concentrations and/or combinations; v) the use of different cells, as mentioned above, with or without a transfected short-hairpin sequence; vi) a pre-incubation of the PCSK9 and SRX peptide (e.g., 1, hour, 2 hours, 3 hours, 4 hours etc.); vii) various temperatures including, but not limited to, body temperature (e.g., 37° C.), supraphysiologic temperature (e.g., 39° C.); and viii) with/without agitation (e.g., shaker or gentle periodic vortexing).
Cells were cultured using one of the combinations of conditions described in the preceding paragraph for 16 hours. After 16 hours, a quantity of diI-LDL (Low density lipoprotein coupled with 1,1′-dioctadecyl-3,3,3′,3′-tetramethylindocarbocyanine perchlorate) needed to bring the media concentration to 5 ug/mL of diI-LDL was added to the culture well and cells continued to be cultured under these new conditions for 4 additional hours. At the end of the 4-hour incubation period (20 total hours of cell culture), the cellular uptake was halted with the addition of 4% formaldehyde in 10 uM Hoechst 33342 in a solvent such as deionized autoclaved water or PBS, and specimens were incubated at 20° C. for 20 minutes. Cell specimens were rinsed twice with PBS and then fluorescence measured with excitation at 360 nm and emission detected at 460 nm to measure DNA content. Cell specimens were then be incubated with a 0.1% SDS in a 0.1 N NaOH solution while being shaken for 10 minutes. Fluorescence of the diI-LDL in the specimens were quantified using excitation at 530 nm and resulting emission at 580 nm.
Fluorescence measurements of diI-LDLR were normalized to estimated cell numbers, determined from the Hoechst fluorescence. […]

[2] = biological target: PCSK9 GOF-D374Y protein (Homo sapiens, UniProt Q8NBP7, D374Y); experiment: Cellular diI-LDL uptake in HepG2 cells with PCSK9 GOF-D374Y; type: cell-based
Description: […] After 16 h, dil-LDL (5 ug/ml) was added to the incubation mixtures. After 4 h, fluorescence was measured (Ex: 520 nm/Em: 575 nm; cutoff: 550 nm). Dil-LDL uptake is calculated as RFU corrected for the number of cells.
(§1) After 16 h, dil-LDL (5 ug/ml) was added to the incubation mixtures. After 4 h, fluorescence was measured (Ex: 520 nm/Em: 575 nm; cutoff: 550 nm). Dil-LDL uptake is calculated as RFU corrected for the number of cells. The PCSK9 and −/+SRX55 [SEQ ID NO: 2] mixtures were pre-incubated for 3 hrs at 37 C prior to addition to the cells.
(§2) LDL internalization was measured by uptake of a fluorescently tagged LDL molecule (diI-LDL) in the absence of exogenous PCSK9 (Cnt), in the presence of exogenous PCSK9 (normal PCSK9=WT, D374Y mutant PCSK9=DY), or in the presence of PCSK9 and a tested peptide (indicated as SRX##, or SRX if a single peptide results is shown in a graph). […]
(§3) Peptide activity was assessed by culturing cells with: i) no SRX peptide/PCSK9 protein complex (control, Cnt); ii) PCSK9 protein; and iii) SRX peptide/PCSK9 complex. […]
Cells were cultured using one of the combinations of conditions described in the preceding paragraph for 16 hours. […] Cell specimens were rinsed twice with PBS and then fluorescence measured with excitation at 360 nm and emission detected at 460 nm to measure DNA content. […]

[3] = biological target: D374Y PCSK9 (DY) (Homo sapiens, UniProt Q8NBP7, D374Y); experiment: Cellular diI-LDL uptake in FL-83B cells with D374Y PCSK9; type: cell-based, mouse; details: FL83B, D374Y 0.6 ug/ml, pre-incubated 3 hrs at 37 C, dose dependent manner (FIG. 7)
Description: as §1, §2, §3
Cells were cultured using one of the combinations of conditions described in the preceding paragraph for 16 hours. After 16 hours, a quantity of diI-LDL (Low density lipoprotein coupled with 1,1′-dioctadecyl-3,3,3′,3′-tetramethylindocarbocyanine perchlorate) needed to bring the media concentration to 5 ug/mL of diI-LDL was added to the culture well and cells continued to be cultured under these new conditions for 4 additional hours. […] Fluorescence of the diI-LDL in the specimens were quantified using excitation at 530 nm and resulting emission at 580 nm. […]

Chain of PCSK9-D374Y protein (Q8NBP7 153-692 D374Y): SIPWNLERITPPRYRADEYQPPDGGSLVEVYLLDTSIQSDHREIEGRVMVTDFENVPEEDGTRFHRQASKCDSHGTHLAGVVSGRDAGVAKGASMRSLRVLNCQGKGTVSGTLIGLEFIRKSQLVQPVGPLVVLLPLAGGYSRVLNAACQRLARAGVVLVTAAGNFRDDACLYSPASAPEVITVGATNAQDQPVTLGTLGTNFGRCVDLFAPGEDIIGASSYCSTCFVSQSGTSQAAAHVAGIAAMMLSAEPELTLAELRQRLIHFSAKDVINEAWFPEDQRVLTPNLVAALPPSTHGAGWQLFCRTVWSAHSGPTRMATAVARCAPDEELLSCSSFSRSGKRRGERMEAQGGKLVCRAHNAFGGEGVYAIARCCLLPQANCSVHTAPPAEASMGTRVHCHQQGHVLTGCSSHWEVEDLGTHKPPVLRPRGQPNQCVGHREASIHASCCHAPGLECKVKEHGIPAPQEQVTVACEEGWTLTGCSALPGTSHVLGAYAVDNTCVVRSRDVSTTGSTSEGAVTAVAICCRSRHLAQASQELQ
Chain of PCSK9 GOF-D374Y protein (Q8NBP7 153-692 D374Y): as above
Chain of D374Y PCSK9 (DY) (Q8NBP7 153-692 D374Y): as above

Val-Tyr-Val-Arg-Phe-Trp (VYVRFW; not fully specified (C-terminus); printed as Val-Tyr-Val-Arg-Phe-Trp) [Compound 1]
LDL internalization (dil-LDL % uptake vs Cnt) ([1]; HuH7, 0.5 μg/ml PCSK9-D374Y, 100 uM peptide (FIG. 3)): positively modulated (increased) | LDL internalization (dil-LDL % uptake vs Cnt) ([1]; HuH7, 0.5 μg/ml PCSK9 GOF-D374Y, increasing concentrations of peptide (FIG. 4)): positively modulated (increased) | dose dependence of positive modulation of LDL internalization ([1]; HuH7, PCSK9 GOF-D374Y (FIG. 4)): positive modulation in a dose dependent manner | percent inhibition (dil-LDL uptake) ([1]; HuH7, PCSK9 GOF-D374Y, peptide at 11.1 uM (FIG. 4 bottom panel)): ~0% | LDL internalization (dil-LDL % uptake vs Cnt) ([2]; HepG2, 2 μg/ml PCSK9 GOF-D374Y, dose dependent manner (FIG. 5)): positively modulated (increased) | LDL internalization (dil-LDL % uptake vs Cnt) ([2]; HepG2, D374Y 0.6 ug/ml, pre-incubated 3 hrs at 37 C, dose dependent manner (FIG. 6)): positively modulated (increased) | LDL internalization (dil-LDL % uptake vs Cnt) [3]: positively modulated (increased)
